Test results taken from patent publication US6011146A, “Altered major histocompatibility complex (MHC) determinant and methods of using the determinant” (Institut Pasteur, priority 1995, dated 2000).
“And” between values parts separate entries of the source, which are not always exact repeats. Equal values may be shown once.

Legend:
[1] = biological target: HLA-DR3 (human); assay: direct peptide binding assay, peptide coated at 30 µg/ml pH 9.6, 125I-labeled HLA-DR3, input 200000 cpm, duplicate
[2] = biological target: SC-K^d -15 (mouse) (UniProt P01887); assay: direct peptide binding assay, peptide coated at 5 µg/ml pH 9.6, 35S-labeled SC-Kd, input 6000 cpm, no coated peptide 228 and 223, duplicate
[3] = biological target: SC-K^d -15 (mouse) (UniProt P01887); assay: direct peptide binding assay, peptide coated at 30 µg/ml pH 9.6, 35S-labeled SC-Kd, input 10,000 cpm, duplicate
[4] = biological target: HLA-DRw13 (human); assay: direct peptide binding assay, peptide coated at 30 µg/ml pH 9.6, 125I-labeled HLA-DRw13, input 200000 cpm, duplicate
[5] = biological target: HLA-DRw13 (human); assay: direct peptide binding assay, peptide coated at 10 µg/ml pH 5, 125I-labeled HLA-DRw13, input 200000 cpm, duplicate
[6] = biological target: HLA-DR3 (human); assay: direct peptide binding assay, peptide coated at 10 µg/ml pH 5, 125I-labeled HLA-DR3, input 200000 cpm, duplicate
[7] = biological target: SC-K^d -15 (mouse) (UniProt P01887); assay: direct peptide binding assay, peptide coated at 10 µg/ml pH 5, 35S-labeled SC-Kd, input 10,000 cpm, duplicate
[8] = biological target: SC-K^d -15 (mouse) (UniProt P01887)
[9] = biological target: K^d molecules isolated from the spleen of BALB/c mice (mouse) (UniProt P01887)
[10] = biological target: SC-K^d -15 (mouse) (UniProt P01887); assay: direct peptide binding assay, peptide coated at 10 µg/ml pH 9.6, 35S-labeled SC-Kd, input 6000 cpm, no coated peptide 228 and 223, duplicate
[11] = biological target: K^d molecules isolated from the spleen of BALB/c mice (mouse) (UniProt P01887); assay: direct peptide binding assay, peptide coated at 10 µg/ml pH 9.6, 125I-labeled H-2K, input 100000 cpm, no coated peptide 1471 and 1595, duplicate
[12] = biological target: T1, SC-K^d -15 (Mus musculus, UniProt P01887+P01902); assay: Direct peptide binding assay, solid phase, with purified 35S-labeled SC-Kd; details: for binding of peptide to SC-K^d -15 (in words): direct binding assay
T1 construct: connecting residue 276 of K^d heavy chain to the first residue of β2 -microglobulin through spacers; made in house
T1 sequence (P01902+P01887 with tags, fused parts or gaps): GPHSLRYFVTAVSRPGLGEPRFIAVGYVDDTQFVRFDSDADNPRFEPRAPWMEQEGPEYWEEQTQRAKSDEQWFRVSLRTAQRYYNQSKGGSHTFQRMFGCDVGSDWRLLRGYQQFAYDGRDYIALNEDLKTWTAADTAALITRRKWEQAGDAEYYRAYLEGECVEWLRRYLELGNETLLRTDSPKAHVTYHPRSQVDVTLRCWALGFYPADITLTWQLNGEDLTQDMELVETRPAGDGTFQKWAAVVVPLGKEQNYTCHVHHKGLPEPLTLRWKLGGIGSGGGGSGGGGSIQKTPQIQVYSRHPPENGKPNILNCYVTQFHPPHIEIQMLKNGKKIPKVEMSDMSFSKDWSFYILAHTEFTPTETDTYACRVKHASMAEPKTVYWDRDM
Method: (§1) Direct Peptide Binding Assay. Wells of microtiter plates are pretreated with 100 μl 2.5% glutaraldehyde in distilled water for 2 h at 20° C., washed with distilled water, and coated for 16 h at 4° C. with 100 μl of peptide diluted at 5 μg/ml either in carbonate-bicarbonate buffer, pH 9.6, or in PBS, pH 7.4 or pH 5.0. Remaining free sites are blocked by incubation for 2 h at 20° C. with BSA diluted 1% in PBS containing 0.05% Tween 20 (Tw) and 0.02% sodium azoture. After washing, purified ^125 I-HLA molecules (100 μl containing 1.5×10^5 cpm, 10^-9 M) diluted in PBS containing 1% BSA, 0.05% Tw, 0.02% sodium azoture, 1 mM PMSF, and 10 μg/ml trypsin inhibitor are added and incubated for 20 h at 20° C. After extensive washing, the radioactivity of each well is counted.
(§2) Inhibition Peptide Binding Assay. Concentrations of 0.1-100 μM of competitor peptides are incubated in tubes for 0-3 h at 20° C. with ^125 I-HLA (10^-9 M) diluted in PBS--BSA--Tw containing the protease inhibitors as mentioned above. […] After extensive washing, the radioactivity in each well is counted and the percent of inhibition is calculated.
(§3) COS-1 cells (usually 10^7 cells) were transfected with pSC-K^d -15 DNA, labeled and lysed as above. […] After the final wash in PBS, SC-K^d -15 was eluted from the matrix with an equal volume of 3M thiocyanate for 10 min on ice. After an overnight dialysis in PBS containing 0.1% NP40, 0.05% Tween and 0.2% BSA, SC-K^d -15 was used in direct binding test as below. Its purity was assessed by SDS-PAGE.
Peptides used in this study are described in Choppin et al. (Choppin, J., Martinon, F., Gomard, E., Bahraoui, E., Connan, F., Bouillot, F., and Levy, J.-P, J. Exp. Med., 1990. 172:889 and references therein), except for HLA-Cw3 and HLA-A24 described in Maryanski, J. Ll, Pala, P., Cerottini, J.-C, and Corradin, G., J. Exp. Med. 1988. 167:1391. Binding assays were performed as described in Choppin, J., Martinon, F., Gomard, E., Bahraoui, E., Connan, F., Bouillot, F., and Levy, J.-P, J. Exp. Med., 1990. 172:889. DR3, DRw13, and K^d molecules were also purified and iodinated as in Choppin, J., Martinon, F., Gomard, E., Bahraoui, E., Connan, F., Bouillot, F., and Levy, J.-P, J. Exp. Med., 1990. 172:889.
K^d molecules isolated from the spleen of BALB/c mice were then purified and iodinated. They were purified by affinity chromatography on a 20-8-4 mAb column and compared binding of peptides by the latter and by ^35 S-labeled SC-K^d -15 in the assay of Bouillot et al. (Bouillot, M., Choppin, J., Cornille, F., Martinon, F., Papo, T., Gomard, E., FournieZaluski, M.-C., and Levey, J.-P., Nature 1989. 339:473 and Choppin, J., Martinon, F., Gomard, E., Bahraoui, E., Connan, F., Bouillot, F., and Levy, J.-P, J. Exp. Med., 1990. 172:889).

[13] = biological target: T1, SC-K^d -15; assay: as above; details: Table 10 (A), input 10,000 cpm, duplicates
[14] = biological target: HLA-DR3 (Homo sapiens, UniProt P01903+P01911); assay: Direct peptide binding assay with purified 125I-labeled HLA-DR3 (positive control)
Method: (§4) Direct Peptide Binding Assay. Wells of microtiter plates are pretreated with 100 μl 2.5% glutaraldehyde in distilled water for 2 h at 20° C., washed with distilled water, […] buffer, pH 9.6, or in PBS, pH 7.4 or pH 5.0. Remaining free sites are blocked by incubation for 2 h at 20° C. with BSA diluted 1% in PBS containing 0.05% Tween 20 (Tw) and 0.02% sodium azoture. […] After extensive washing, the radioactivity of each well is counted.

[15] = biological target: DRw13 (Homo sapiens, UniProt P01903+P01911); assay: Direct peptide binding assay with purified 125I-labeled HLA-DRw13 (positive control)
Method: as §4

[16] = biological target: T2, K^d molecules isolated from the spleen of BALB/c mice (Mus musculus, UniProt P01902); assay: Direct peptide binding assay with purified 125I-labeled conventional K^d
T2 construct: K^d molecules isolated from the spleen of BALB/c mice; from tissue
T2 sequence (P01902 22-368): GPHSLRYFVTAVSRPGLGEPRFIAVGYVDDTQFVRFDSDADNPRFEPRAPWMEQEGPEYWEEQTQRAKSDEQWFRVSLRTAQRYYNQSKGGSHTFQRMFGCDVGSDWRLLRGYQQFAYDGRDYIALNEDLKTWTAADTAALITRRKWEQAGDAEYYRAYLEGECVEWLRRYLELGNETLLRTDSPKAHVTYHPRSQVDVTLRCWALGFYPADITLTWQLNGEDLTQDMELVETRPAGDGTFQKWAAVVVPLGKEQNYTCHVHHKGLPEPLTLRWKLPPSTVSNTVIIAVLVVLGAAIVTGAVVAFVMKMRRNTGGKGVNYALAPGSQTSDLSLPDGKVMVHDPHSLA
T2 sequence (P01887 21-119 partner): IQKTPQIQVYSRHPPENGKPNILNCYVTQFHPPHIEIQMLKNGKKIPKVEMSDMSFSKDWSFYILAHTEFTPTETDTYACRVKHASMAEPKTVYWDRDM
Method: as §1
as §2, with “calculated. […]” for “calculated.”

[17] = tested on: mAb 34-1-2; assay: Immunoprecipitation of 35S-labeled SC-K^d molecules from transfected COS-1 cell extracts by mAb 34-1-2; type: binding
Method: as §3

[18] = Table 10 (A), input 200000 cpm, peptide 10 μg/ml, pH 5, duplicates

HIV 1 Env. 312-327 (peptide)
cpm bound [1]: 3780 cpm | cpm bound [2]: 390 cpm and 377 cpm | cpm bound [3]: 750 cpm and 712 cpm | cpm bound [4]: 22600 cpm

HIV 1 Nef. 66-80 (peptide)
cpm bound [1]: 2320 cpm and 1820 cpm | cpm bound [3]: 475 cpm and 397 cpm | cpm bound [4]: 1390 cpm and 1290 cpm

HIV 1 Vpr. 68-80 (peptide)
cpm bound [5]: 21800 cpm and 20600 cpm | cpm bound [6]: 18600 cpm and 18200 cpm | cpm bound [7]: 710 cpm and 621 cpm | cpm bound to coated env 312-327 in the presence of the competitor [8]: 42 cpm and 41 cpm | cpm bound to coated env 312-327 in the presence of the competitor [9]: 359 cpm and 409 cpm

HLA-A24 170-182 (peptide)
cpm bound [10]: 284 cpm | cpm bound [11]: 1060 cpm and 1300 cpm

HLA-Cw3 170-182 (peptide)
cpm bound [10]: 169 cpm and 117 cpm | cpm bound [11]: 1340 cpm and 1380 cpm | cpm bound to coated env 312-327 in the presence of the competitor [8]: 367 cpm and 375 cpm | cpm bound to coated env 312-327 in the presence of the competitor [9]: 15400 cpm and 15800 cpm

IRIQRGPGRAFVTIGK [env 312-327]
35S-labeled SC-Kd bound to coated peptide ([12]; Table 10 (B), input 6000 cpm, peptide 5 μg/ml, pH 9.6, duplicates): 390 cpm and 377 cpm | binding of peptide to SC-K^d -15 (in words) [12]: significant binding | 35S-labeled SC-Kd bound to coated peptide ([13]; peptide 30 μg/ml, pH 9.6): 750 cpm and 712 cpm

LFIHFRIGORHSR [vpr 68-80]
35S-labeled SC-Kd bound to coated env 312-327 in presence of the competing peptide ([12]; Table 10 (B), competition, env 312-327 bound to plastic + labelled peptide as competitor, input 6000 cpm, duplicates): 42 cpm and 41 cpm | competition with env 312-327 peptide bound to plastic (in words) ([12]; competition experiment, SC-K^d): competed efficiently | binding of peptide to SC-K^d -15 (in words) [12]: significant binding | 125I-labeled HLA-DR3 bound to coated peptide [14, 18]: 18582 cpm and 18245 cpm | binding of peptide to HLA-DR3 positive control (in words) ([14]; direct binding assay): significant binding | 125I-labeled HLA-DRw13 bound to coated peptide [15, 18]: 21838 cpm and 20593 cpm | binding of peptide to DR213 positive control (in words) ([15]; direct binding assay): significant binding | 35S-labeled SC-Kd bound to coated peptide ([13]; peptide 10 μg/ml, pH 5): 710 cpm and 621 cpm | 125I-labeled H-2K bound to coated env 312-327 in presence of the competing peptide ([16]; Table 10 (B), competition, env 312-327 bound to plastic + labelled peptide as competitor, input 100000 cpm, duplicates): 359 cpm and 409 cpm | competition with env 312-327 peptide bound to plastic (in words) ([16]; competition experiment, K^d): competed efficiently

TYQRTRALVTG [NPR 147-158]
effect of added immunogenic peptide on immunoprecipitation of SC-K^d molecules [17]: no effect
